Test results from patent US20220380463A1 (Adimab, published 2022).
Positions count from the first letter of the chain named.

Tests used:
[1] = molecular target: T1, Cynomolgus CD3εδ Fc heterodimer (Cy CD3ε Fc / CD3δ Fc-HIS) (cynomolgus, UniProt Q95LI8 22-100); test: BLI (Octet), IgG on AHC sensor, pH 6.0
T1 chain 1: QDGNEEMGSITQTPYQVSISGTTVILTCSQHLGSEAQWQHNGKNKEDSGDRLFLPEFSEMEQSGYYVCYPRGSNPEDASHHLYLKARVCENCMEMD
T1 chain 2: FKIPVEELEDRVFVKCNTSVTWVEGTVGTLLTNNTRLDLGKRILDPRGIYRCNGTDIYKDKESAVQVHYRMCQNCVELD

[2] = molecular target: T2, human CD3 on CD3+ Jurkat cells (human, UniProt P07766 23-207); test: flow cytometry, 100 nM IgG on CD3+ Jurkat cells, pH 6.0
T2 construct: whole, on cells; Native CD3 complex on cells; the other CD3 chains are not specified for this assay; also called Human CD3+ Jurkat
T2 sequence (P07766 23-207): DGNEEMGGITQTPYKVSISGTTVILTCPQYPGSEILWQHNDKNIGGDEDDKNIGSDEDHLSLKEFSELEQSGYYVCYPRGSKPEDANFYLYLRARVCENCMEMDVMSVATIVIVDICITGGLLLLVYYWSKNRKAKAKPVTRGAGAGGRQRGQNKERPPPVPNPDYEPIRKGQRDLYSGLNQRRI
Protocol: (§1) Specificity of the anti-CD3 antibodies for human CD3+ Jurkat cells compared to CHO-S cells at pH 6.0 and 7.4 was determined using a FACS cell binding assay. Briefly, CD3+ human Jurkat cells and CHO-S cells were thawed and washed with cold PBSF buffer, pH 7.4 (PBS+0.1% BSA, pH 7.4). About 200,000 cells were aliquoted per well of a 96-well plate and pelleted by centrifugation (5 minutes at 500×g). The cells were washed with either PBSF pH 7.4 or PBSF pH 6.0 (PBS+0.1% BSA, pH 6.0), and then resuspended in 100 ul in either PBSF pH 7.4 or PBSF pH 6.0 with IgG antibody produced in yeast (100 nM). The mixture (cells+antibody) was incubated for 20 minutes on ice, then washed twice with either PBSF pH 7.4 or PBSF pH 6.0. Cells were resuspended in 50 ul of propidium iodide (1:500 dilution) and anti-human IgG-RPE (1:100 dilution) prepared in either PBSF pH 7.4 or PBSF pH 6.0, then incubated for 20 minutes on ice in the dark before cells were washed twice with either PBSF pH 7.4 or PBSF pH 6.0. Binding was analyzed on FACS Canto II.
(§2) Cell binding assays. CD3+ human Jurkat cells (ATCC) and CHO-S cells (Invitrogen/ThermoFisher) were thawed and washed with cold PBSF buffer, pH 7.4 (PBS+0.1% BSA, pH 7.4). About 200,000 cells were aliquoted per well of a 96-well plate (FACS Assay Plate VWR BD 353263) and pelleted by centrifugation (5 minutes at 500×g). The cells were washed with either PBSF pH 7.4 or PBSF pH 6.0 (PBS+0.1% BSA, pH 6.0), and then resuspended in 100 ul in either PBSF pH 7.4 or PBSF pH 6.0 with IgG antibody (100 nM) produced in yeast as described above. The mixture (cells+antibody) was incubated for 20 minutes on ice, then washed twice with either PBSF pH 7.4 or PBSF pH 6.0. Cells were resuspended in 50 ul of propidium iodide (Roche; 1:500 dilution) and anti-human IgG-RPE (Southern Biotech; 1:100 dilution) prepared in either PBSF pH 7.4 or PBSF pH 6.0, then incubated for 20 minutes on ice in the dark before cells were washed twice with either PBSF pH 7.4 or PBSF pH 6.0. Binding was analyzed on FACS Canto II.

[3] = molecular target: T2, human CD3 on CD3+ Jurkat cells; test: flow cytometry, 100 nM IgG on CD3+ Jurkat cells, pH 7.4
Protocol: as §1, §2

[4] = molecular target: T2, human CD3 on CD3+ Jurkat cells; test: flow cytometry on CD3+ Jurkat cells, ratio of MFI at pH 6.0 to pH 7.4
Protocol: as §1, §2

B1: SAD10319_P05_E04 (ADI-57411) (antibody, V domains shown)
VH: QVQLVQSGAEVKKPGASVKVSCKASGYTFTGYEMHWVRQAPGQRLEWMGWINPSTGNTVYSQKFQGRVTITRDTSASTAYMELSSLRSEDTAVYYCARDHYGHYFYDVWGQGTLVTVSS
VL: DIVMTQSPDSLAVSLGERATINCKSSQSLLNARTGKNYLAWYQQKPGQPPKLLIYWASTRESGVPDRFSGSGSGTDFTLTISSLQAEDVAVYYCKQSYSRRTFGGGTKVEIK
notes: IgG; also called Ab139
Binder B1 has a koff [1] of 0.00373 s⁻¹.

B2: LAD9956_P01_C03 (ADI-57440) (antibody, V domains shown)
VH: QVQLVQSGAEVKKPGASVKVSCKASGFNIKDYYMHWVRQAPGQRLEWMGWIDLENANTIYDAKFQGRVTITRDTSASTAYMELSSLRSEDTAVYYCARDAYGRYFYDVWGQGTLVTVSS
VL: B1 VL with R33H, G35H
notes: IgG; also called Ab171
B2 showed a koff [1] of 0.000913 s⁻¹.

B3: SAD10319_P06_C10 (ADI-57423) (antibody, V domains shown)
VH: QVQLVQSGAEVKKPGASVKVSCKASGYTFTEYVMHWVRQAPGPRLEWMGDIDAGTGATKYSQKFQGRVTITRDTSASTAYMELSSLRSEDTAVYYCARDAYHHYFYDVWGQGTLVTVSS
VL: B1 VL
notes: IgG; also called Ab152
Binder B3 has a koff [1] of 0.00318 s⁻¹.

B4: SAD10319_P05_G01 (ADI-57413) (antibody, V domains shown)
VH: B3 VH with T30N, E31N, V33A, P43Q, R44S, D50W, A57N, K59D, Y101H, H103R
VL: B1 VL
Work on B4 yielded a koff [1] of 0.0236 s⁻¹.

B5: SAD10319_P06_A10 (ADI-57419) (antibody, V domains shown)
VH: B1 VH with S54V, N57A, V59A, H100A, V108H
VL: B1 VL
notes: IgG; also called Ab148
With B5 the koff [1] was 0.0246 s⁻¹.

B6: SAD10319_P05_G02 (ADI-57414) (antibody, V domains shown)
VH: B1 VH with G31T, E33A, N52D, S54V, V59K, H103R, V108H
VL: B1 VL
notes: IgG; also called Ab142
B6 was tested, and the koff [1] was 0.0156 s⁻¹.

B7: SAD10319_P05_H06 (ADI-57417) (antibody, V domains shown)
VH: B3 VH with V33D, R44T, D50W, K59V, H102G, H103R, V108H
VL: B1 VL
notes: IgG; also called Ab145
B7 was tested, and the koff [1] was 0.0104 s⁻¹.

B8: SAD10319_P06_G09 (ADI-57431) (antibody, V domains shown)
VH: B3 VH with T30E, E31S, V33D, D50W, K59T
VL: B1 VL
notes: IgG; also called Ab161
With B8 the koff [1] was 0.00258 s⁻¹.

B9: SAD10319_P06_B10 (ADI-57421) (antibody, V domains shown)
VH: B3 VH with P43Q
VL: B1 VL
notes: IgG; also called Ab150
In the case of B9, the koff [1] is reported as 0.002 s⁻¹.

B10: SAD10319_P05_F01 (ADI-57412) (antibody, V domains shown)
VH: B3 VH with E31D, Y32D, V33A, P43Q, R44S, D50W, A57N, K59Y, R98H, H102G
VL: B1 VL
notes: IgG; also called Ab140
B10 gave a koff [1] of 0.0214 s⁻¹.

B11: SAD10319_P06_C12 (ADI-57424) (antibody, V domains shown)
VH: B1 VH with T30D, G31S, Q43H, S54L, N57A, V59K
VL: B1 VL
notes: IgG; also called Ab153
Work on B11 yielded a koff [1] of 0.00756 s⁻¹.

B12: SAD10319_P06_B11 (ADI-57422) (antibody, V domains shown)
VH: B3 VH with T30H, E31S, V33D, P43Q, D50W, K59T, H102G
VL: B1 VL
notes: IgG; also called Ab151
For B12, the koff [1] was 0.0101 s⁻¹.

B13: SAD10319_P06_H10 (ADI-57435) (antibody, V domains shown)
VH: B3 VH with T30E, E31S, V33D, D50W, A57N, R72A, T74E, A76T, A100H, H102G
VL: B1 VL
notes: IgG; also called Ab165
B13 was tested, and the koff [1] was 0.0267 s⁻¹.

B14: SAD10319_P06_H08 (ADI-57434) (antibody, V domains shown)
VH: B3 VH with T30E, E31S, V33D, P43Q, R44T, D50W, K59T
VL: B1 VL
notes: IgG; also called Ab164
For B14, the koff [1] was 0.0231 s⁻¹.

B15: SAD10319_P06_H07 (ADI-57433) (antibody, V domains shown)
VH: B1 VH with T30V, G31S, E33N, W50S, P53A, S54G, T55D, G56A, V59K
VL: B1 VL
notes: IgG; also called Ab163
Work on B15 yielded a koff [1] of 0.00901 s⁻¹.

B16: LAD9963_P01_E06 (ADI-57443) (antibody, V domains shown)
VH: B2 VH
VL: B1 VL with R33H
Work on B16 yielded a koff [1] of 0.000866 s⁻¹.

B17: LAD5224_P03_A01 (ADI-26906) (antibody, V domains shown)
VH: B2 VH
VL: B1 VL
notes: IgG; also called Ab1; parent clone
For B17, the “MFI pH 6.0” value [2] was 6040 MFI, the “MFI pH 7.4” value [3] was 5270 MFI and the “MFI pH 6.0/MFI pH 7.4” value [4] was 1.1.

B18: SAD10319_P06_G11 (ADI-57432) (antibody, V domains shown)
VH: B1 VH with G31D, E33D, P53A, S54G, T55D, G56A, N57A, H100A, V108H
VL: B1 VL
notes: IgG; also called Ab162
In the case of B18, the koff [1] is reported as 0.00924 s⁻¹.

B19: SAD10319_P06_E08 (ADI-57426) (antibody, V domains shown)
VH: B3 VH with T30I, E31K, P43Q, A53P, G54D, K59E, A100D
VL: B1 VL
notes: IgG; also called Ab155
For B19, the koff [1] was 0.0105 s⁻¹.

B20: SAD10319_P06_F10 (ADI-57430) (antibody, V domains shown)
VH: B1 VH with T30V, G31S, E33D, Q43P, R44S, N52D, S54N, N57A
VL: B1 VL
notes: IgG; also called Ab160
Binder B20 has a koff [1] of 0.00663 s⁻¹.

B21: SAD10319_P06_E10 (ADI-57428) (antibody, V domains shown)
VH: B3 VH with E31Q, V33D, P43Q, R44T, D52N, A57V, K59V, H102G, H103R
VL: B1 VL
notes: IgG; also called Ab157
For B21, the koff [1] was 0.00575 s⁻¹.

B22: SAD10319_P06_H11 (ADI-57436) (antibody, V domains shown)
VH: B3 VH with E31D, V33D, P43H, D50W, D52N, T55D, G56A, K59V, H102G, V108H
VL: B1 VL
notes: IgG; also called Ab166
For B22, the koff [1] was 0.0285 s⁻¹.

B23: SAD10319_P06_F07 (ADI-57429) (antibody, V domains shown)
VH: B3 VH with T30E, E31S, V33D, P43Q, R44P, D50W, K59T
VL: B1 VL
notes: IgG; also called Ab159
B23 was tested, and the koff [1] was 0.0251 s⁻¹.

B24: SAD10319_P05_G03 (ADI-57415) (antibody, V domains shown)
VH: B1 VH with T30H, G31S, E33N, Q43H, S54D, N57A, V59D, H100A, H103R
VL: B1 VL
notes: IgG; also called Ab143
For B24, the koff [1] was 0.0167 s⁻¹.

B25: SAD10319_P06_D12 (ADI-57425) (antibody, V domains shown)
VH: B3 VH with T30N, E31R, P43Q, D50G, Y101H, H102R
VL: B1 VL
B25 gave a koff [1] of 0.0192 s⁻¹.

B26: SAD10319_P06_A11 (ADI-57420) (antibody, V domains shown)
VH: B1 VH with T30D, G31S, Y32I, E33A, S54A, V59D, H100A, V108H
VL: B1 VL
notes: IgG; also called Ab149
In the case of B26, the koff [1] is reported as 0.00279 s⁻¹.

B27: SAD10319_P06_E09 (ADI-57427) (antibody, V domains shown)
VH: B1 VH with G31A, E33D, S54D, N57A, H100A, H103R
VL: B1 VL
notes: IgG; also called Ab156
B27 showed a koff [1] of 0.0122 s⁻¹.

B28: LAD9966_P01_A08 (ADI-57445) (antibody, V domains shown)
VH: B2 VH
VL: B1 VL with Y38H
notes: IgG; also called Ab176
Work on B28 yielded a koff [1] of 0.0035 s⁻¹.

B29: SAD10319_P05_G04 (ADI-57416) (antibody, V domains shown)
VH: B1 VH with G31S, E33G, N52D, S54V, N57A, V59D, H100A, Y101H, H103R, V108H
VL: B1 VL
notes: IgG; also called Ab144
In the case of B29, the koff [1] is reported as 0.00389 s⁻¹.

B30: LAD9965_P01_H07 (ADI-48666) (antibody, V domains shown)
VH: B2 VH
VL: B1 VL with K36H
notes: IgG; also called Ab177
For B30, the “MFI pH 6.0” value [2] was 5700 MFI, the “MFI pH 7.4” value [3] was 4800 MFI and the “MFI pH 6.0/MFI pH 7.4” value [4] was 1.2.

B31: SAD10318_P01_A02 (ADI-48581) (antibody, V domains shown)
VH: B2 VH with G102H, R103H
VL: B1 VL with G35H, Y38H, S99H, R100H
notes: IgG; also called Ab237
For B31, the “MFI pH 6.0” value [2] was 1730 MFI, the “MFI pH 7.4” value [3] was 38 MFI and the “MFI pH 6.0/MFI pH 7.4” value [4] was 45.5.

B32: SAD10318_P01_A03 (ADI-48587) (antibody, V domains shown)
VH: B2 VH with A100H, G102H
VL: B1 VL with K36H, Y98H, R100H
notes: IgG; also called Ab36
For B32, the “MFI pH 6.0” value [2] was 5120 MFI, the “MFI pH 7.4” value [3] was 66 MFI and the “MFI pH 6.0/MFI pH 7.4” value [4] was 77.1.
